Results reported in patent US20060234343A1.

Assays:
[1] = molecular target: ErbB3 500.Fc (truncated ErbB3 ectodomain-Fc fusion protein homodimer) (human) (UniProt P21860); assay: summary of the Eu-ligand displacement assays (ErbB3 fragment, HRGβ)
[2] = molecular target: ErbB4 497.Fc (truncated ErbB4 ectodomain-Fc fusion protein homodimer) (human) (UniProt Q15303); assay: summary of the Eu-ligand displacement assays (ErbB4 fragment, HRGβ)
[3] = molecular target: ErbB3 500.Fc (truncated ErbB3 ectodomain-Fc fusion protein homodimer) (human) (UniProt P21860); assay: displacement of Eu-HRGβ by unlabelled HRGβ from ErbB3 500.Fc captured on protein G
[4] = molecular target: ErbB4 497.Fc (truncated ErbB4 ectodomain-Fc fusion protein homodimer) (human) (UniProt Q15303); assay: displacement of Eu-HRGβ by unlabelled HRGβ from ErbB4 497.Fc captured on protein G
[5] = molecular target: full-length ErbB4 ectodomain-Fc fusion homodimer (human) (UniProt Q15303); assay: displacement of Eu-BTC by unlabelled HRGβ from ErbB4 ectodomain-Fc captured on protein G
[6] = molecular target: ErbB2/4 full-length ectodomain-Fc heterodimer (human) (UniProt P04626); assay: displacement of Eu-BTC by unlabelled HRGβ from ErbB2/4 ectodomain-Fc captured on protein G

Sequence of ErbB4 497.Fc (truncated ErbB4 ectodomain-Fc fusion protein homodimer) (human) (Q15303 26-497, form in doubt): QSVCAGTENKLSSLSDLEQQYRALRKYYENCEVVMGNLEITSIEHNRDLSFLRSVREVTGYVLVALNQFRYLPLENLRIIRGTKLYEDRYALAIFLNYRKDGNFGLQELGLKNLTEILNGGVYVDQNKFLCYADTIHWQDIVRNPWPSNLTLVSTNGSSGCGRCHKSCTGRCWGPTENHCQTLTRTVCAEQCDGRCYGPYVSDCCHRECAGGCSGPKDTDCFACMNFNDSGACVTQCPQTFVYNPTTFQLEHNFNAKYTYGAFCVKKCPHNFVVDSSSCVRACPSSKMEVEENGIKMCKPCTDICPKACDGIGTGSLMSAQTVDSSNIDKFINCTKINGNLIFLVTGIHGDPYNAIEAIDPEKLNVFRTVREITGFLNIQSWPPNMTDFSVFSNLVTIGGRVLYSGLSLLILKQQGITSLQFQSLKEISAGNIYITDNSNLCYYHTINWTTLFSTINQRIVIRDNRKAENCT
Sequence of ErbB3 500.Fc (truncated ErbB3 ectodomain-Fc fusion protein homodimer) (human) (P21860 20-500, form in doubt): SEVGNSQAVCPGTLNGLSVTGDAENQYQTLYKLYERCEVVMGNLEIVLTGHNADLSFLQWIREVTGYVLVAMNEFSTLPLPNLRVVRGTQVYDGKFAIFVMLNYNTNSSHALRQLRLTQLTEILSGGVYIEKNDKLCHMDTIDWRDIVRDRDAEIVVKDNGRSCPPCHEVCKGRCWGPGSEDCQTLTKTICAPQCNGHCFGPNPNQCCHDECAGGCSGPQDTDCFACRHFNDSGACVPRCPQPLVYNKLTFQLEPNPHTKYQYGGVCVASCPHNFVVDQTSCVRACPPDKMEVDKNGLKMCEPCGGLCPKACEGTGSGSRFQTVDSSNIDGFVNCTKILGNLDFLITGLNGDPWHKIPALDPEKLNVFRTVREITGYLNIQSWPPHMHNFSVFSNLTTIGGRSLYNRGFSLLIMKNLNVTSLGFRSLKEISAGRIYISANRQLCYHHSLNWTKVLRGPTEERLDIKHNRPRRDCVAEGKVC
Sequence of full-length ErbB4 ectodomain-Fc fusion homodimer (human) (Q15303 26-651): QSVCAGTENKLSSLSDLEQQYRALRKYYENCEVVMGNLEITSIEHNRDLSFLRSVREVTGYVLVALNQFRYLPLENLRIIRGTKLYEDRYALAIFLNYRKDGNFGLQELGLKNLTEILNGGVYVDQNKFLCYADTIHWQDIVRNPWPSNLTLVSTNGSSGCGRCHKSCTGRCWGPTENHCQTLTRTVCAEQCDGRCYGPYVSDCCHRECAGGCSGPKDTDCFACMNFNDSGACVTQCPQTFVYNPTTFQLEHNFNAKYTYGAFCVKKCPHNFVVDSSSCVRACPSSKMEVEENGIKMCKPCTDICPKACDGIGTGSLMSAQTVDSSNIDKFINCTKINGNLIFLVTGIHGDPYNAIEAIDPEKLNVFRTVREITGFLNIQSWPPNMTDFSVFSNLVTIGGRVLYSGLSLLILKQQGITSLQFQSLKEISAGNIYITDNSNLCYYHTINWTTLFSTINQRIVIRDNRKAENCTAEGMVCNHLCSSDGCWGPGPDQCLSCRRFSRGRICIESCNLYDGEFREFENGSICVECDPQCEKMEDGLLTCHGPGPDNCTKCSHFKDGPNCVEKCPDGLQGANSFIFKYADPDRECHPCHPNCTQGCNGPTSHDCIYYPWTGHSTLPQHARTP

## β-heregulin (HRGβ, Sigma) (ligand)
[1]
  affinity: < 1 nM
[2]
  affinity: < 1 nM
[3]
  IC50: 0.49 nM
[4]
  IC50: 0.057 nM
[5]
  IC50: 18 nM
[6]
  change of the IC50 against the ErbB4 ectodomain-Fc homodimer: 100 fold
